Literature values as cited in PMC5576430.
Read-outs that look alike come from different tables or passages of the source.

Key:
[1] = biological target: p300 CH1 (Homo sapiens) (UniProt Q09472); assay: tryptophan fluorescence
[2] = biological target: p300 CH1 (Homo sapiens) (UniProt Q09472)
[3] = biological target: HIF-1α (Homo sapiens) (UniProt Q16665)

Chain of UniProt Q09472 (Q09472 331-417): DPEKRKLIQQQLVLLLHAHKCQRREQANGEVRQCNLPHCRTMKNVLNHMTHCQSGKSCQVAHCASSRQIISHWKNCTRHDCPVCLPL

## HIF-1α helix 3 unconstrained peptide helix 3 (from UniProt Q16665)
[1]
  Kd: 6.06 µM

## HIF-1α C-TAD helix 2 peptide
[2]
  Kd: 0.825 µM

## cyclo-CLLFVY
[3]
  Kd: 0.124 µM
